{"source": "paper PMC10273302", "about": "(Science (New York, N.Y.), 2023)", "binders": {"B1": {"name": "clonotype473 (10x_4) (antibody, V domains shown)", "VH": "EVQLVQSGAEVKKPGESLRISCKGSGYTFSTHWIGWVRHMPGKGLEWVGVIYPDDSDTRLSPSFQGQVTISADKSTTTAFLWWSSLKASDTATYYCARGVQSCIRNTCSFYGWFDRWGQGTRVTVSS", "VL": "DIVMTQSPDSLAVSLGERATIYCKSSHSLLYSSNNYNYLAWYQQKPGQPPKLLIYWASTRESGVPDRFSGSGSGTDFTLTISSLQAADVAVYYCQQYFYSPYTFGQGTKVEIR"}, "B2": {"name": "clonotype2760 (Quake) (antibody, V domains shown)", "VH": "EVQLVQSEIEVRKPGESLKISCKGSGYNFATHWIGWVRQMPGKGLEWMGTIYPLDSDTRYSPYFQGQVTISADKSINTAYLQWNSLKASDTAMYYCARVPEGSVVAGEVHFYYYMDVWGKGTAVTVSS", "VL": "DIVMTQSPDSLAVSLGERATINCKSSQSLLYSSNNRNYLAWYQHKPGQPPKLLMYWASTRESGVPDRFSGGGSETDFTLTISSLQAEDVAMYYCQQYYFTPYTFGQGTKLEIK"}, "B3": {"name": "clonotype4582 (Quake) (antibody, V domains shown)", "VH": "EVQLVQSGAEVKKPGESLKISCKASGYTFTNYWIAWVRQMPGKGLEWMGIIFPSDSDTRYSPSFQGQVTISADKSVSTAYLQWSSLKASDTAMYYCARGAATILRGVVTSYNWFDSWGQGTLVTVSS", "VL": "DVVMTQSPDSLAASLGERATINCTSSHNILYNSNNNNYLAWYQQKPGQPPKLLIYWASTRESGVPDRFSGSGSGTDFTLTISSLQAEDVAVYSCQQYFSTPYTFGQGTKLEIK"}, "B4": {"name": "clonotype3 (10x_4) (antibody, V domains shown)", "VH": "EVQLVQSGAEVKKPGESLKISCKVSGYSFTTYWIAWVRQMPGKGLEWMGIIYPGDSDTRYSPSFQGQVTISADKSVTTAYLQWGSVKASDTAMYYCARPPHFIDAGGRQTPGYFDLWGQGTLVTVSS", "VL": "DIVMTQSPDSLAVSLGERATINCKSSQTVLFRSNNKNYLAWYQQKPGQPPKLLIYWASTRQSGVPDRFSGSGSGTDFTLTISSLQAEDVALYFCQQYHDSPYTFGQGTKVEIK"}, "B5": {"name": "flu_c504 (antibody, V domains shown)", "VH": "EVQLVQSGAEVKKPGESLKISCKASGYTFTRYWIAWVRQMPGKGLEWMGIIYPGDSDTRYNPSFQGQVTISADKSINTAYLQWSSLKASDTAIYYCAMCVGSPTCYGWFDPWGQGTLVTVSS", "VL": "DIVMTQSPDSLAVSLGERATINCKSSLNILYSSNKKNYLAWYQQKPGQPPKLLIYWASTRESGVPDRFSGSGSGTDFTLTISSLQAEDVAVYYCQQYHSIPYTFGQGSKLEIK"}, "B6": {"name": "flu_c645 (antibody, V domains shown)", "VH": "EVQLVQSGAEVKKPGESLKISCQASGYIFVNYWVGWLRQAPGKGLEWIGIIFPGDSDTTYSPSFQGQVTISAAKSINTVYLQWNSLKASDTAMYYCARAPVPGMSGWFDPWGQGTLVTVSS", "VL": "DIVMTQSPDSLAVSLGGGATIKCKSSHSLLYSSNSKNYLSWYQQKPGQPPKLLFYWASTRESGVPDRFSGSGSGTDFTLTIDSLQAEDLAVYFCQQYFYTPYTFGQGTKLEIN"}, "B7": {"name": "clonotype286 (10x_4) (antibody, V domains shown)", "VH": "EVQLVQSGPEVKEPGESLKISCKASGYNFAKYWIAWVRQMPGKGLEWMGIVYPGDSDTRYSPSFQGQVTISADKSLTTAYLQWSSLKASDTAIYYCARGVQDCDSRNCYAYNWFDPWGQGTLVTVSS", "VL": "DIVMTQSPESLAVSLGERATINCKSSHSVFFSSNNKNYLSWYQQKPGQPPKLLIYWASTRQSGVPDRFSGGGSGTDFTLTISSLQAEDVAVYYCQQYYYSPYTFGQGTKLEIK"}, "B8": {"name": "flu_c326 (antibody, V domains shown)", "VH": "EVQLVQSGAEVKKPGESLKISCRTSGFTFTRHWIAWVRQMPGKGLEWMGIIYPGDSDVTYNPSFQGQVTISADKSITTAYLQWSSLQASDTAIYFCAKPYNYCNTTTCYTRGYFDFWGRGTLVTVSS", "VL": "DIVMTQSPDSLAVSLGERATINCKSSQSLLYRSDNKNYLAWYQQNPGQPPKLLIYWASIRESGVSDRFSGSGSGTDFTLTINSLQAEDVAVYYCQQYYFTPYTFGQGTKLEIK", "notes": "recombinant human IgG"}, "B9": {"name": "flu_c357 (antibody, V domains shown)", "VH": "EVQLVQSGAEVKKPGESLKISCKTSGFKFTSHWIAWVRQMPGKGLEWMGIIYPGDSDTRYNPSFEGQVTVSADKSINTAYLQWSSLKASDTAMYYCARLPHRESGNVSTTWGWFDPWGQGTLVTISS", "VL": "DIVLTQSPDSLAVSLGERATINCKSSHNVLYISNSKNYLAWYQQKPGQPPKLLIYWASTRESGVPDRFSGSGSGTDFTLTISSLQPEDVAVYYCQQYFSTPYTFGQGTRLEIK", "notes": "recombinant human IgG"}}}
{"target": "T1, influenza A minimal peptide VPNGTLVKTITNDQI (spotted for dot blot) (Influenza A virus (H3 hemagglutinin …))", "T1 chain": "VPNGTLVKTITNDQI", "assay": "not given", "conditions": "not given"}
{"binder": "B1", "binding result": "binds"}
{"binder": "B2", "binding result": "binds"}
{"binder": "B3", "binding result": "binds"}
{"binder": "B4", "binding result": "binds"}
{"binder": "B5", "binding result": "binds"}
{"binder": "B6", "binding result": "binds"}
{"binder": "B7", "binding result": "binds"}
{"target": "T2, influenza A H3 hemagglutinin ectodomain trimer, A/Aichi/02/1968 (Influenza A virus A/Aichi/2/1968 (H3N2, …, UniProt P03437))", "T2 construct": "source: Expi293, transient transfection, purified (Ni-NTA, SEC)", "assay": "ELISA", "conditions": "both partners purified"}
{"binder": "B8", "binding result": "binds"}
{"binder": "B9", "binding result": "binds"}
